The source of these data is publication PMC9470112 (2020).

Sequences and labels used below:
B1: EBV-LMP2^ESE-specific TCR from donor A (TCR)
alpha TRAV12 TRAJ3 CDR3: CVVTGYSSASKIIF
beta TRBV6-3 TRBJ2-1 CDR3: CASSWEGQYNEQFF
B2: EBV-LMP2^ESE-specific TCR from donor E (TCR)
alpha TRAV26 TRAJ23 CDR3: CIVSGGKLIF
beta TRBV12-3/4 TRBJ2-5 CDR3: CASSSSWTSGSGETQYF
B3: TCR-B1 (TCR)
alpha TRAV12 TRAJ3 CDR3: CVVTGYSSASKIIF
beta TRBV6-3 TRBJ2-1 CDR3: CASSSEGQFNEQFF
B4: EBV-LMP2^ESE-specific TCR C^2 from donor C (TCR)
alpha TRAV30 TRAJ45 CDR3: CGTEDGRGGADGLTF
beta TRBV6-3 TRBJ2-1 CDR3: CASSYGIYEQFF
B5: TCR-C1 (TCR)
alpha TRAV30 TRAJ45 CDR3: CGTGSGGGADGLTF
beta TRBV6-3 TRBJ2-1 CDR3: CASSPEGVFNEQFF

This test deals with T1, EBV LMP2 (latent membrane protein 2) peptide on HLA-A*01:01 (human).
T1 peptide: ESEERPPTPY
The test can be described thus: multimer staining.
On to B1, for which the binding result is “recognises”.

On to B2, for which the binding result is recorded as “recognises”.

As for B3, the binding result is reported as “recognises”.

In the case of B4, the binding result is “recognises”.

Take B5: the binding result was “recognises”.
